Results published in patent US20250236667A1, “ANTIBODIES TO MUTANT CALRETICULIN AND USES THEREOF” (CENTRAL ADELAIDE LOCAL HEALTH NETWORK INC, priority 2021, published 2025).

B1: wild type calreticulin (CALR) (other, human, UniProt P27797 18-417, looked up)
chain: EPAVYFKEQFLDGDGWTSRWIESKHKSDFGKFVLSSGKFYGDEEKDKGLQTSQDARFYALSASFEPFSNKGQTLVVQFTVKHEQNIDCGGGYVKLFPNSLDQTDMHGDSEYNIMFGPDICGPGTKKVHVIFNYKGKNVLINKDIRCKDDEFTHLYTLIVRPDNTYEVKIDNSQVESGSLEDDWDFLPPKKIKDPDASKPEDWDERAKIDDPTDSKPEDWDKPEHIPDPDAKKPEDWDEEMDGEWEPPVIQNPEYKGEWKPRQIDNPDYKGTWIHPEIDNPEYSPDPSIYAYDNFGVLGLDLWQVKSGTIFDNFLITNDEAYAEEFGNETWGVTKAAEKQMKDKQDEEQRLKEEEEDKKRKEEEEAEDKEDDEDKDEDEEDEEDKEEDEEEDVPGQAKDEL
notes: also called CALR^WT; endogenous wild type CALR

How the values were obtained:
[1] = test system: healthy cord blood CD34+ cells; assay: cells; type: cell-based, human; settings: Homo sapiens, 288 h, 12 days, read-out: inhibition of megakaryocyte formation
Description: Umbilical cord blood (UCB) was collected with written consent from full-term deliveries at the Women's Health Unit, Lyell McEwin Hospital (Adelaide, South Australia) or the Department of Obstetrics and Gynecology, Medical University of Graz (Austria) with institutional review board approval (IRB approval: 31-322 ex 18/19; HREC/20/WCHN/65). Samples were processed using a Ficoll-Paque (GE Healthcare) density gradient to isolate mononuclear cells (800×g, room temperature, 30 minutes, deceleration off), followed by red cell lysis (ammonium-chloride-potassium lysing buffer) to remove remaining red blood cells. CD34 enrichment was performed by magnetic cell separation using CD34 Microbead kit (Miltenyi Biotech). Alternatively, purified CD34+ cells from cord-blood were purchased from Lonza. CD34+ cells with a purity above 90% were either cryopreserved or directly cultured in serum-free stem cell retention media (StemSpan SFEMII, Stemcell Technologies, Vancouver, BC, Canada) supplemented with human recombinant SCF, TPO, FLT3, IL-6 (all 20 ng/mL), UM729 (1.75 uM) and StemReginin 1 (SR1, 300 nM). All cytokines and SRI were purchased from PeproTech (Rocky Hill, NJ, USA) whereas UM729 was purchased from Stemcell Technologies.
For megakaryocyte differentiation assays, CD34+ cells derived from cord blood or from patient peripheral blood mononuclear fractions were plated in Megacult (MegaCult™-C Collagen and Medium with Lipids) with added IL-3 and IL-6 (10 ng/ml) in the presence or absence of 50 ng/mL TPO. Cells were plated at an initial density of 1800 cells/well and cultured for 12 days at 37° C. and 5% CO2. […] Culture media was replenished every 3 days and cells were assessed for megakaryocyte differentiation on day 12 using anti-human CD41/61 PE-Cy7 (Clone A2A9/6) and CountBright beads (Thermo Fisher) to enumerate cell numbers. […] Cells were seeded at approximately 100 cells per well and were cultured in the presence of 20 μg/mL 4D7 or control IgG antibody and scored for colony and blast forming units at 12-14 days.

[2] = molecular target: T1, thrombopoietin receptor (TpoR) (UniProt P40238 26-635, limits assumed); assay: co-immunoprecipitation with anti-FLAG (MPL/TpoR), reducing Western blot
T1 construct: whole, on cells; It was immunoprecipitated with anti-FLAG beads, so the expressed TpoR evidently carries a FLAG tag; The construct and the position of the tag are not described; also called TPO receptor
T1 sequence (looked up): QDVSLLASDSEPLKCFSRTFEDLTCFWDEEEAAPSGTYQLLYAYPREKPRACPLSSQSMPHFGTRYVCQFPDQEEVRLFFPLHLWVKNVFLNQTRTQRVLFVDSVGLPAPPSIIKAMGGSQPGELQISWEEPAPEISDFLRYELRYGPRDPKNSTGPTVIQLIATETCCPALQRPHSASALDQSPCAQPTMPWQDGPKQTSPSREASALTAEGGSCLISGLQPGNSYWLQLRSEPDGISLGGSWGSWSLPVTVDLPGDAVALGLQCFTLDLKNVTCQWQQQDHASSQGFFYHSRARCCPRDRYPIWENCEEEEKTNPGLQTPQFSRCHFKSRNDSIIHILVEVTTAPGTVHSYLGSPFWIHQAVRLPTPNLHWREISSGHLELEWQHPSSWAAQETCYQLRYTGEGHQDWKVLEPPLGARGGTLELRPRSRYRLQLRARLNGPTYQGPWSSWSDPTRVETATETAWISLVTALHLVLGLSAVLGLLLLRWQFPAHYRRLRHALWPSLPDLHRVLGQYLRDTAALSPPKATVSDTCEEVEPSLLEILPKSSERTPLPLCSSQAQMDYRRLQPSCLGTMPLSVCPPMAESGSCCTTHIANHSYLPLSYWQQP
Description: B. Similar experiment using TPO-independent TF-1 TpoR CALR^del61 cells at 4 and 8 hours. C. Similar experiment shown using TPO-independent TF-1 TpoR CALR^del52 cells, 8 hours. D. Flow cytometry analysis for cell cycle distribution of TF-1 TpoR CALR^del61 cells exposed to 20 μg/mL IgG or 4D7 for 48 hours. Cells were harvested and fixed and stained with propidium iodide and their DNA contents were analysed. Results from one representative experiment shown. Percentages of cells in Sub Go, G1. S and G2/M cycle indicated. E. Western blot showing specific co-immunoprecipitation of mutant CALR^del61 cells with TpoR anti-FLAG antibody under reducing conditions detected by total and mutant specific CALR antibodies. Arrowheads represent detected CALR protein. F. Western blot showing decreased TpoR phosphorylation in a TpoR immunoprecipitated after 8 hours of 20 μg/mL 4D7 treatment compared to PBS or IgG control in TF-1 TpoR CALR^del61.
(§1) For immunoblotting of total lysates, cells were lysed in NP40 buffer containing 150 mM NaCl, 50 mM Tris pH 7.6, 1% NP-40, supplemented with protease inhibitors (Complete, Roche) and phosphatase inhibitor cocktails, and boiled for 5 minutes after addition of sample buffer (60 mM Tris pH 6.8, 5% glycerol, 1% SDS, 2% β-mercaptoethanol, 0.02% bromophenol blue) before SDS gel electrophoresis followed by Western blotting (Tvorogov et al, 2010). […]

[3] = test system: TF-1 TpoR CALR^del61 cells; assay: Cell proliferation, trypan blue exclusion; type: cell-based, human; settings: 5 or 20 μg/mL; FIG. 8
Description: […] Cells were seeded in triplicate and each well was counted in triplicate every 24 hours for 5 days using trypan blue exclusion.

[4] = molecular target: T2, full-length 30 amino acid CALR mutant neoepitope peptide (peptide used for immunisation) (human); assay: ELISA on peptide
T2 construct: also called full-length peptide
T2 peptide: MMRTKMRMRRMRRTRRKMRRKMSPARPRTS

mutant CALR protein = assay: Western blot detection of mutant CALR by hybridoma clones; type: binding, human; settings: cell extracts from TF-1 cells transduced with and without mutant CALR; data not shown
Description: (§2) Rats were immunised with a CALR mutant peptide “MMRTKMRMRRMRRT RRKMRRKMSPARPRTS” coupled to KLH, this peptide sequence is unique to CALR mutant. Serum from the immunised rats was screened by enzyme linked immunoassay, to verify a strong titre to the peptide immunogen, prior to performing the hybridoma fusion. Immunised rat spleen cells were harvested and a spleen single cell suspension was combined with Sp2/O myeloma cell line. The cell mixture was treated with polyethylene glycol plus DMEM prior to been plated in 96 well flat bottom plates. The expanding hybridomas were screened initially by ELISA and the positive clones were further verified by western blot, for reactivity to the expressed CALR mutant protein before subcloning the hybridomas for antibody production.
For immunoblotting of total lysates, cells were lysed in NP40 buffer containing 150 mM NaCl, 50 mM Tris pH 7.6, 1% NP-40, supplemented with protease inhibitors (Complete, Roche) and phosphatase inhibitor cocktails, and boiled for 5 minutes after addition of sample buffer (60 mM Tris pH 6.8, 5% glycerol, 1% SDS, 2% β-mercaptoethanol, 0.02% bromophenol blue) before SDS gel electrophoresis followed by Western blotting (Tvorogov et al, 2010). Primary antibodies against pERK (#9101), pSTAT5 (#9359), ERK (#4695), Actin (#4970), Caspase 3 (#14220), wildtype CALR (#12238) were purchased from Cell Signalling. Primary antibodies against pSTATI (#612233), pSTAT3 (#612357), STATI (#610186), STAT3 (#610190), STAT5 (#610192) and Anti-phosphotyrosine 4G10 (#610012) were purchased from BD Biosciences. Mutant CALR monoclonal antibody CAL2 was purchased from Dianova (Hamburg, Germany). Immunopreciptation of TpoR was performed in standard NP40 lysis buffer with additional 50 mM iodoacetamide to avoid any de novo disulfide bond formation post lysis. To reduce IgG background during immunoprecipitation anti-FLAG conjugated to magnetic beads (Sigma, #M8823) were used. For this same reason, anti-FLAG-HRP conjugated antibodies (Sigma, #A8592) were used in western blotting.

[5] = test system: 30 amino acid peptide corresponding to the C-terminal mutant CALR neoepitope sequence; assay: ELISA binding to peptide; design: species or system human
Description: as §2

[6] = molecular target: B1; assay: Western blot of TF-1 cell extracts (hybridoma clone screen)
Description: B. Replicate Scatchard analyses of 4D7 using I¹²⁵-labelled and unlabelled 4D7 bound to full-length peptide (n=3). C. […] Cells were cultured in the presence or absence of 10 ng/ml TPO (n=3). D. Paracrine CALR-mutant protein is not sufficient to maintain TPO sensitive cells in culture. TF1 TpoR and TF-1 TpoR CALR^del61 cells were seeded at the same density and cultured in the presence or absence of TPO. Cells were separated by semi-permeable membrane in a horizontal co-culture system. Cell populations on either side of the membrane were counted every 24 hours over 4 days in triplicate and representative images were taken on day 4. Exogenous CALR secreted by TF-1 TpoR CALR^del61 was unable to assist growth of factor dependent TF-1 TopR cells (n=3). E. Histogram overlays showing fluorescence intensity of unstained and PE conjugated IgG2a isotype control in TF-1, TF-1 TpoR and TF-1 TpoR CALR^del61 compared to 4D7 conjugated to PE.
as §1

N#CC[C@H](C1CCCC1)n1cc(-c2ncnc3[nH]ccc23)cn1 [ruxolitinib]
inhibition at 0.05 µM ([1]; 50 nM, P=0.008): > 30% | inhibition at 0.1 µM ([1]; 100 nM, P=0.07): > 30%

B1
binding result [2]: no binding

B2: 2D2 rat monoclonal anti-mutant calreticulin antibody (antibody, V domains shown)
VH: QVQLQQSGAELTKPGSSVKISCKTSGYTFTTYDISWIKQRPGQALEWIGAIYPGGVTTGYNEKFKGKATLTVDKSSNTAFMQLSSLTPEDTAVYYCARWGHTTGTRFDHWGQGVMVTVSS
VL: DVLLTQTPVSLSVSLGDQASISCRSSQSLEYSDGYTYLEWYVQKPGQSPQLLIYEVSDRFSGVPDRFIGSGSGTDFTLKISRVEPEDLGVYYCFQATHDPPTFGGGTKLELK
notes: also called rat anti-human mutCALR 2D2
proliferation of cytokine-independent TF1 TpoR/mutCALR cells [3]: inhibit proliferation | binding result [4]: binds | detecting mutant but not wild type CALR protein by Western blotting (mutant CALR protein): superior activity | binding to peptide by ELISA [5]: positive binding | binding result [6]: no binding
